Data from patent US20240269303A1 (RESEARCH DEVELOPMENT FOUNDATION, published 2024).

Legend:
LGR5 [1] = molecular target: T1, LGR5 (UniProt O75473 22-907, limits assumed); assay: cell-based or functional assay
T1 sequence (looked up): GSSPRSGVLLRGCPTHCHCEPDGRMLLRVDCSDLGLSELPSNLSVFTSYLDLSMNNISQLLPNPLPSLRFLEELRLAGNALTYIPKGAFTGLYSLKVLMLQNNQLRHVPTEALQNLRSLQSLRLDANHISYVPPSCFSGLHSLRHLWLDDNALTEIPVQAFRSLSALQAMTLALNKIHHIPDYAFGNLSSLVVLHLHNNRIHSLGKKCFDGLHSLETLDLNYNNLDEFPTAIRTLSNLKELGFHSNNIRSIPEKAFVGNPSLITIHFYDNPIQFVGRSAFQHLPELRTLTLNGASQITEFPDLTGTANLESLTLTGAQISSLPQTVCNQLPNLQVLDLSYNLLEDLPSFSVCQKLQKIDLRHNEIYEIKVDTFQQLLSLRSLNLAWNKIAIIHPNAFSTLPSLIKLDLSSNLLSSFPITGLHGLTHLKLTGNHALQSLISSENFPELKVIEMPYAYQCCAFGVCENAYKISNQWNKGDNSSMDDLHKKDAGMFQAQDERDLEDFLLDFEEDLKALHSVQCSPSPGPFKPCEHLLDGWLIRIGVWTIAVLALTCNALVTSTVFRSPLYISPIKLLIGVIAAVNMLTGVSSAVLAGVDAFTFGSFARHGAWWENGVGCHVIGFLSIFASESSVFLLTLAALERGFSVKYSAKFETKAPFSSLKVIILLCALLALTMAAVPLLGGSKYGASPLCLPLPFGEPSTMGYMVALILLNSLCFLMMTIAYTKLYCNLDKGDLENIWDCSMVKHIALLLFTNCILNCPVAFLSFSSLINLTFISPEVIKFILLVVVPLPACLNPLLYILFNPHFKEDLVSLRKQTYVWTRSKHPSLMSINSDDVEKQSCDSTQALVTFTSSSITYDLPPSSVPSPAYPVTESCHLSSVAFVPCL

LGR5 [2] = molecular target: T1, LGR5; assay: cell-based or functional assay; remark: listed apart in the source

B1: FcF2Δlinker-MMAE (Fc fusion)
chain: EPKSCDKTHTCPPCPAPELLGGPSVFLFPPKPKDTLMISRTPEVTCVVVDVSHEDPEVKFNWYVDGVEVHNAKTKPREEQYNSTYRVVSVLTVDHHDWLNGKEYKCKVSNKALPAPIEKTISKAKGQPREPQVYTLPPSRDELTKNQVSLTCLVKGFYPSDIAVEWESNGQPENNYKTTPPVLDSDGSFFLYSKLTVDKSRWQQGNVFSCSVMHEALHSHYTQKSLSLSPGKSRGIKGKRQRRISAEGSQACAKGCELCSEVNGCLKCSPKLFILLERNDIRQVGVCLPSCPPGYFDARNPDMNKCIKCKIEHCEACFSHNFCTKCKEGLYLHKGRCYPACPEGSSAANGTMECSSPLPETGGG
modifications: C-terminal GGG carries valine-citrulline-PAB-MMAE
IC50 (read off the curve), growth inhibition of OVCAR8/LGR5 cells [panel ExpiCHO FcF2-MMAE linker deletion batch #1] (LGR5 [1]): ~4 nM

B2: FcST4-MMAE (Fc fusion)
chain: EPKSCDKTHTCPPCPAPELLGGPSVFLFPPKPKDTLMISRTPEVTCVVVDVSHEDPEVKFNWYVDGVEVHNAKTKPREEQYNSTYRVVSVLTVDHHDWLNGKEYKCKVSNKALPAPIEKTISKAKGQPREPQVYTLPPSRDELTKNQVSLTCLVKGFYPSDIAVEWESNGQPENNYKTTPPVLDSDGSFFLYSKLTVDKSRWQQGNVFSCSVMHEALHSHYTQKSLSLSPGKGGGGSGGGGSSRGIKGKRQRRISAEGSQACAKGCELCSEVNGCLKCSPKLFILLERNDIRQVGVCLPSCPPGYFDARNPDMNKCIKCKIEHCEACFSHNFCTKCKEGLYLHKGRCYPACPEGSSAANGTMECSSPGGGGSGGGGSSRGIKGKRQRRISAEGSQACAKGCELCSEVNGCLKCSPKLFILLERNDIRQVGVCLPSCPPGYFDARNPDMNKCIKCKIEHCEACFSHNFCTKCKEGLYLHKGRCYPACPEGSSAANGTMECSSPGGGGSGGGGSLPETGGG
modifications: C-terminal GGG carries val-cit-PAB-MMAE (sortase reaction with G3-val-cit-PAB-MMAE; GG-8xHis removed)
IC50 of cytotoxicity (OVCAR8 empty vector and LGR5-overexpressing cells; the cell line of each end is not stated) (LGR5 [2]): 1.9 to 3.8 nM

B3: FcF2-deruxtecan (Fc fusion)
chain: EPKSCDKTHTCPPCPAPELLGGPSVFLFPPKPKDTLMISRTPEVTCVVVDVSHEDPEVKFNWYVDGVEVHNAKTKPREEQYNSTYRVVSVLTVDHHDWLNGKEYKCKVSNKALPAPIEKTISKAKGQPREPQVYTLPPSRDELTKNQVSLTCLVKGFYPSDIAVEWESNGQPENNYKTTPPVLDSDGSFFLYSKLTVDKSRWQQGNVFSCSVMHEALHSHYTQKSLSLSPGKGGGGSGGGGSSRGIKGKRQRRISAEGSQACAKGCELCSEVNGCLKCSPKLFILLERNDIRQVGVCLPSCPPGYFDARNPDMNKCIKCKIEHCEACFSHNFCTKCKEGLYLHKGRCYPACPEGSSAANGTMECSSPGGGGSGGGGSLPETGGGC
modifications: C-terminal Cys of GGGC carries maleimide-GGFG-deruxtecan
IC50 of growth inhibition, OVCAR8/EV cells (LGR5-poor control; CCK8, 120 h) (LGR5 [2]): 9.04 nM | IC50 of growth inhibition, OVCAR8/LGR5 cells (CCK8, 120 h) (LGR5 [2]): 0.753 nM | selectivity, OVCAR8/LGR5 against OVCAR8/EV (LGR5 [2]): 12 fold

B4: FcF2-PNU159682 (Fc fusion)
chain: EPKSCDKTHTCPPCPAPELLGGPSVFLFPPKPKDTLMISRTPEVTCVVVDVSHEDPEVKFNWYVDGVEVHNAKTKPREEQYNSTYRVVSVLTVDHHDWLNGKEYKCKVSNKALPAPIEKTISKAKGQPREPQVYTLPPSRDELTKNQVSLTCLVKGFYPSDIAVEWESNGQPENNYKTTPPVLDSDGSFFLYSKLTVDKSRWQQGNVFSCSVMHEALHSHYTQKSLSLSPGKGGGGSGGGGSSRGIKGKRQRRISAEGSQACAKGCELCSEVNGCLKCSPKLFILLERNDIRQVGVCLPSCPPGYFDARNPDMNKCIKCKIEHCEACFSHNFCTKCKEGLYLHKGRCYPACPEGSSAANGTMECSSPGGGGSGGGGSLPET
modifications: PNU159682 (anthracycline derivative) joined to the C-terminus by sortase A; the linker is not described
IC50 of growth inhibition, OVCAR8/EV cells (LGR5-poor control) (LGR5 [2]): > 3 nM | IC50 of growth inhibition, OVCAR8/LGR5 cells (LGR5 [2]): 0.3 nM | IC50 ratio, OVCAR8/EV to OVCAR8/LGR5 (LGR5 [2]): ~10 ratio
